For the test, the target named is HLA-A*02:01. The test is described as follows: IEDB peptide-MHC binding, purified MHC/direct/fluorescence; filed as Kd, often an IC50 or EC50 that approximates it; ≥ and ≤ were set here for values at or beyond the usual limits of such assays. Conditions: source organism: Influenza A virus (A/Puerto Rico/8/1934(H1N1)).
IILKANFSV came in with a Kd of 45 nM.
Next, RMGAVTTEV: 133 nM.
Next, FLARSALIL: 0.9 nM; WMMAMKYPI: 36 nM; MMMGMFNMLST: 36 nM.
The figure for VLMEWLKTRPI is 101 nM.
FLKDVMESM gave a Kd of 51 nM.
On to SLVGIDPFRL, for which the Kd amounted to 70 nM.
MMGMFNMLSTV registered a Kd of 51 nM.
The figure for LLQNSQVYS is 1370 nM.
The figure for GMFNMLSTV is 23 nM.
The figure for GMFNMLSTVL is 384 nM.
YLIRALTLNTM showed a Kd of 46 nM.
Turning to FLAMITYMT, the Kd came to 253 nM.
Next, FMQALHLLL: 13 nM; FLLMDALKLSI: 24 nM.
The figure for WMMAMKYPITA is 75 nM.

One may read the Kd as the equilibrium constant for the complex coming apart.

For the origin of these results see the Immune Epitope Database (IEDB).
